B1: mTIM-1 ECD (protein)
chain: YVEVKGVVGHPVTLPCTYSTYRGITTTCWGRGQCPSSACQNTLIWTNGHRVTYQKSSRYNLKGHISEGDVSLTIENSVESDSGLYCCRVEIPGWFNDQKVTFSLQVKPEIPTRPPTRPTTTRPTATGRPTTISTRSTHVPTSIRVSTSTPPTSTHTWTHKPEPTTFCPHETTAEVTGIPSHTPTDWNGTVTSSGDTWSNHTEAIPPGKPQKNPTKG
B2: mTIM-2 20-129 (protein)
chain: ESHTAVQGLAGHPVTLPCIYSTHLGGIVPMCWGLGECRHSYCIRSLIWTNGYTVTHQRNSLYQLKGNISEGNVSLTIENTVVGDGGPYCCVVEIPGAFHFVDYMLEVKPE

Tests used:
[1] = molecular target: T1, mTIM-1 (Mus musculus, UniProt Q5QNS5); assay: SPR
T1 chain: B1 chain

[2] = molecular target: the molecule itself; assay: sedimentation equilibrium analytical ultracentrifugation

Row | Binder | Kd [1] [µM] | Kd [2] [µM]
1 | B1 | ~0.6 | –
2 | B2 | – | ~300
